Patent US20180044393A1 (INSERM INSTITUT NATIONAL DE LA SANT ET DE LA RECHERCHE M …, published 2018)
Numbering of substitutions follows the chain as printed. Positions of bridges follow the written chain, without caps; N, C: chain ends. No end group written: not given here. *: point of attachment. 125I = [125I]*

Assays:
Experiment in all cases: 125I-OxA binding on CHO-S cells expressing the OX1R mutant
OX1R Y348A = target: T1, OX1R Y348A (human, UniProt O43613 1-425)
T1 construct: site-directed mutant (TM7) stably expressed in CHO-S cells; not shown: YFP from vector pEYFP-N2 fused at the C-terminus
T1 chain: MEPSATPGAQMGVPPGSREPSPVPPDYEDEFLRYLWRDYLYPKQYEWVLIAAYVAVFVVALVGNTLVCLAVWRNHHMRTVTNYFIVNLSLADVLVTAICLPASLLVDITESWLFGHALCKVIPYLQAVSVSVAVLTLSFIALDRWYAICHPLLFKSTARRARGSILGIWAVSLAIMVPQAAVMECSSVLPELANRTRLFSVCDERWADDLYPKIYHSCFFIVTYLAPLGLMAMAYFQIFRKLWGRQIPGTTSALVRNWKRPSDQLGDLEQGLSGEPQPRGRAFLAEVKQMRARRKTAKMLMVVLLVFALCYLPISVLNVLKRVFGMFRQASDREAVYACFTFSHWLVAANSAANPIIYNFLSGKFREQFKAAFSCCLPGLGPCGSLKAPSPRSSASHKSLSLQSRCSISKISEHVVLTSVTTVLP
Protocol: (§1) CHO—S cells expressing recombinant native or mutated OX1R were grown as previously described (El Firar et al., 2009) and maintained at 37° C. in a humidified 5% CO₂/air incubator. ¹²⁵I-orexia-A (74 TBq/mmol) was prepared as previously described (El Firar et al., 2009). […] Free peptides were removed by 2 cell washing cycles with PBS. […] Data were analyzed using the GraphPad software (http://www.graphpad.com).
(§2) All residues of OX1R fulfilling this condition were mutated to alanine by site-directed mutagenesis (Table II).

OX1R T341A = target: T2, OX1R T341A (human, UniProt O43613 1-425)
T2 construct: site-directed mutant (TM7) stably expressed in CHO-S cells; not shown: YFP from vector pEYFP-N2 fused at the C-terminus
T2 chain: T1 chain with T341A, A348Y
Protocol: as §1, §2

OX1R Y124A = target: T3, OX1R Y124A (human, UniProt O43613 1-425)
T3 construct: site-directed mutant (TM3) stably expressed in CHO-S cells; not shown: YFP from vector pEYFP-N2 fused at the C-terminus
T3 chain: T1 chain with Y124A, A348Y
Protocol: as §1, §2

OX1R N318A = target: T4, OX1R N318A (human, UniProt O43613 1-425)
T4 construct: site-directed mutant (TM6) stably expressed in CHO-S cells; not shown: YFP from vector pEYFP-N2 fused at the C-terminus
T4 chain: T1 chain with N318A, A348Y
Protocol: as §1, §2

OX1R P101A = target: T5, OX1R P101A (human, UniProt O43613 1-425)
T5 construct: site-directed mutant (TM2) stably expressed in CHO-S cells; not shown: YFP from vector pEYFP-N2 fused at the C-terminus
T5 chain: T1 chain with P101A, A348Y
Protocol: as §1, §2

Measured: binding result

B1: 125I-orexin-A (peptide, UniProt O43612 34-66, looked up)
peptide: QPLPDCCRQKTCSCRLY(125I)ELLHGAGNHAAGILTL
modifications: disulfide 6-12, 7-14; not fully specified (residue 1, C-terminus)
notes: mature; also called OxA
binds: all assays above
